Series [1] has as its system primary human pan T cells. Briefly: Cytokine production following PD-L1-dependent costimulation. It is filed as cell-based. The settings on record: mitomycin-c treated K562/OKT3/PDL1 aAPC; FIG. 6.
Series [2] deals with T1, CD28 (Homo sapiens, UniProt P10747). Kind of series: Jurkat/IL2 + K562/OKT3/PD-L1 reporter assay. It is filed as cell-based. The arrangement: host or cells: Jurkat cells expressing an IL-2-luciferase reporter. On the technique in general: In a reporter assay the amount or activity of a reporter protein is the signal.
Series [3] concerns the target T2, huCTLA4 (Homo sapiens, UniProt P16410). Kind of series: Flow binding to CHO cells stably expressing CTLA4. Set-up: huCTLA4 and huPD-L1, full-length mammalian surface expression constructs were generated; expressed in transfected cells; host or cells: CHO cells, lentiviral transduction, sorted to >98% purity. The settings on record: Table E19; CHO cells stably expressing CTLA4; 33.3 nM. The gist of the method:
(§1)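 Cells were first blocked in PBS with 1% BSA and 0.1% sodium azide. Primary staining with fusion protein ran 45 min on ice, and secondary staining with PE anti-human Fc at 1:150 ran 30 min on ice.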

For another series, the target named is T3, PD-L1/PD-1 interaction (Homo sapiens, UniProt Q9NZQ7).
T3 construct: expressed in transfected cells
Kind of series: PD-L1/PD-1 binding and blocking on CHO/PD-L1 cells. As to conditions: fluorescently conjugated PD-1-Fc; FIG. 7. On the procedure:
Binding of selected immunomodulatory fusion proteins to cells expressing PD-L1 was assessed to test for blocking of the PD-L1/PD-1 interaction. […] Samples were acquired on a flow cytometer and MFIs of the fluorescently labeled PD-1 were determined by Flowjo software analysis.
(§2) The multivalent variant CD80 IgSF domain fusion proteins were assessed to test for blocking of the PD-L1/PD-1 and CTLA-4/CD80 interaction performed substantially as described in Example 15. CHO/OKT3/PD-L1 and CHO/CTLA-4 cells were counted and plated at 100,000 cells/well and then incubated with fluorescently conjugated PD-1-Fc and CD80-Fc. Exemplary multivalent variant CD80 IgSF domain fusion proteins were incubated with the cells for 30 minutes. […] Cells were washed and incubated with 100 nM fluorescently conjugated PD-1-Fc and CD80-Fc competitor for 30 minutes. Cells were then washed and samples were acquired on a flow cytometer and MFIs of the fluorescently labeled molecules were determined.

The target in series [4] is T2, huCTLA4. Briefly: Antagonism of CD80/CTLA-4 binding on CHO cells expressing CTLA-4. The settings on record: 25 nM fluorochrome-conjugated wild-type CD80-Fc; FIG. 21. Set-up: Full-length mammalian surface expression constructs for each of human CTLA-4, PD-L1, and CD28. On the procedure: After washing, cells were incubated with 25 nM fluorochrome-conjugated wild-type CD80-Fc. Bound fluorescent competitor protein was detected and measured by flow cytometry.
as §2

Series [5] concerns the target T1, CD28. Briefly: Flow binding to Jurkat/IL2 reporter cells (CD28). Set-up: host or cells: Jurkat cells expressing an IL-2-luciferase reporter. The settings on record: Table E19; Jurkats (CD28); 33.3 nM. Summed up: as §1
Series [6] concerns the target T1, CD28. Briefly: CD28 costimulation via Fc receptor or PD-L1 dependent cross-linking (Jurkat/IL2 + K562/OKT3 +/- PD-L1). It counts as cell-based. The arrangement: host or cells: Jurkat cells expressing an IL-2-luciferase reporter. The settings on record: K562/0KT3 aAPC, luciferase signal. On the procedure: In a further experiment, CD28 costimulation was assessed for variant CD80-IgV-Fc fusion proteins, where the Fc was an IgG1 Fc (e.g. SEQ ID NO:1517) capable of mediating effector activity via binding to Fc receptors (FcR). The experiment was carried out as described in part A above, except CD32-expressing K562 cells stably transduced with OKT3 (K562/OKT3) or OKT3 and PD-L1 (K562/OKT3/PD-L1) were used instead of the CHO/OKT3 and CHO/OKT3/PD-L1 cells, and the results are depicted in Table E9.

In series [7] the target is T1, CD28. Briefly: Jurkat/IL2 + CHO/OKT3 +/- PD-L1 reporter assay: PD-L1-dependent CD28 costimulation. It is filed as cell-based. The arrangement: host or cells: Jurkat cells expressing an IL-2-luciferase reporter. As to conditions: luciferase signal. The gist of the method: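 Readout is relative luminescence from lysed cocultures: test protein given 15 min at room temperature to Jurkat cells before adding CHO artificial APCs displaying OKT3 alone or OKT3 plus PD-L1, then 5 h at 37 °C, 5% CO2.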

The target of series [8] is T1, CD28. Kind of series: Jurkat/IL2 reporter assay: blockade of CD28 costimulation (plate-bound anti-CD3/CD86-Fc). It is filed as cell-based. The arrangement: host or cells: Jurkat cells expressing an IL-2-luciferase reporter. The settings on record: Table E5; protein diluted to 40 nM before mixing with cells; 5 hours. The gist of the method: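 Readout is Bio-Glo luminescence after a 5 h, 37 °C stimulation of IL-2-luciferase Jurkat reporter cells on wells precoated (overnight, 4 °C) with anti-CD3 antibody and CD86-Fc. Cells were first mixed with CD80-Fc test proteins for 15 min at room temperature.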

Series [9] deals with huPD-L1 transduced MC38 tumor cells. Briefly: In vitro cytotoxicity to huPD-L1 transduced MC38 tumor cells. It is filed as cell-based, mouse. The settings on record: 100 nM or 10 nM; 72 hours; human pan T cells 1:5; FIG. 17. As for the experimental part: This Example describes the assessment of in vitro cytotoxicity of huPD-L1 transduced MC38 tumor cells. MC38 tumor cells, non-transduced or transduced with huPD-L1, were treated with Mitomycin-C and plated with human pan T cells labelled with CFSE at a 1:5 ratio. […] As a control, an exemplary anti-PD-1 antibody nivolumab or an Fc (inert) only control also were assessed. Cells were then harvested and stained with 7-AAD viability dye. After acquiring samples on a flow cytometer, the percentage of dead cells was calculated using Flowjo analysis by gating on 7-AAD+ cells in the CFSE− gate.

From patent US20220177587A1, “METHODS AND USES OF VARIANT CD80 FUSION PROTEINS AND RELATED CONSTRUCTS” (Alpine Immune Sciences, Inc., priority 2018, published 2022) come the findings set out here.

Where a chain is given by its changes, count along the chain named. Names may count otherwise.

T2 sequence (P16410 36-223): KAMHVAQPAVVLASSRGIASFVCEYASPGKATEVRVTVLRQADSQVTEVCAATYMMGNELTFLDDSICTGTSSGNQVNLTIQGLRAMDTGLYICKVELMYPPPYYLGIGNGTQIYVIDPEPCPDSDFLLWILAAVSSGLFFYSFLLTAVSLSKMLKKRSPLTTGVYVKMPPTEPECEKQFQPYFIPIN
T3 sequence (Q9NZQ7 19-290): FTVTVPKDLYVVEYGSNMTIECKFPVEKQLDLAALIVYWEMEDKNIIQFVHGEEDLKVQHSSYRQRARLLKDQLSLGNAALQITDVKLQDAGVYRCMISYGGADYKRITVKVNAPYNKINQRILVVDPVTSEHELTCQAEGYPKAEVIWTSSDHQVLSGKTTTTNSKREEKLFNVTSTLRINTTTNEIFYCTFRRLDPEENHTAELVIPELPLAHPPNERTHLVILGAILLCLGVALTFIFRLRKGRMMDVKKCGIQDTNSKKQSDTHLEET

B1: E35D/M47V/N48K/V68M/K89N: variant CD80 IgV-Fc, IgV SEQ ID NO:465 (protein)
chain: VIHVTKEVKEVATLSCGHNVSVEELAQTRIYWQKDKKMVLTMMSGDVKIWPEYKNRTIFDITNNLSIMILALRPSDEGTYECVVLKYENDAFKREHLAEVTLSVKAD
Consider B1, for which the “IL-2 secretion in culture supernatants” value in series [1] is given as “resulted in IL-2 secretion in culture supernatants”. Besides, in the series with CD28 [2] (IgV-Fc (inert), various concentrations, FIG. 5), the “PD-L1 dependent CD28 costimulation (luciferase activity)” value is “induced PD-L1 dependent CD28 costimulation in a dose-dependent manner”. For the same molecule, the “Relative Luciferase Units (RLU), CD80-Fe Cone 50 nM” value in the series with CD28 [2] (Table E8, K562/OKT3/PD-L1 aAPC, 50 nM) was 1439 RLU. The “CTLA4 MFI at 33.3 nM” value in the series with huCTLA4 [3] is on record as 20884. Also, in the series with PD-L1/PD-1 interaction, the “blocking of binding of PD-1 to PD-L1” value is reported as “antagonize or block binding of PD-1 to PD-L1”. In the series with huCTLA4 [4], the “antagonism of binding of CD80 to CTLA-4” value is listed as “antagonized the binding of CD80 to CTLA-4”. The “CD28 MFI at 33.3 nM” value in the series with CD28 [5] amounted to 1348.

B2: E35D/M47I/L70M: variant CD80 IgV-Fc, IgV SEQ ID NO:199 (SEQ ID NO:125 in b995) (protein)
chain: B1 chain with V47I, K48N, M68V, L70M, N89K
Consider B2, for which the “CD28 costimulation, FcR Dependent Cross-Linking (No PD-L1), 0.6 nM” value in the series with CD28 [6] (0.6 nM) was 1609. The “CD28 costimulation, FcR Dependent Cross-Linking (No PD-L1), 50 nM” value with CD28 [6] (50 nM) was determined as 5780. The “PD-L1-Dependent CD28 Costimulation, +PD-L1, 0.6 nM” value in the series with CD28 [7] (CHO/OKT3/PD-L1 aAPC, 0.6 nM) is listed as 1004. Moreover, in the series with CD28 [7] (CHO/OKT3/PD-L1 aAPC, 50 nM), the “PD-L1-Dependent CD28 Costimulation, +PD-L1, 50 nM” value was 2629. Further, in the series with CD28 [7] (CHO/OKT3 aAPC, no PD-L1, 50 nM), the “PD-L1-Dependent CD28 Costimulation, No PD-L1, 50 nM” value stood at 600. Besides, the “PD-L1-Dependent CD28 Costimulation, No PD-L1, […]” value with CD28 [7] (CHO/OKT3 aAPC, no PD-L1, […]) was 549. In addition, the “Average Relative Luminescence Units” value with CD28 [8] is 1077 Relative Luminescence Units. For the same molecule, in series [9], the “cytotoxicity (percentage of dead 7-AAD+ tumor cells)” value is “increased cytotoxicity against huPD-L1 transduced MC38 tumor cells, but not non-transduced MC38 parental cells”.
